The record followed here is the nanobody polyreactivity screen of Harvey et al. (2022).

This series can be described thus: yeast display, Sf9 membrane polyspecificity reagent, FACS + sequencing; frameworks hold sequencing errors. The essentials:
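Synthetic nanobody libraries on Saccharomyces cerevisiae BJ5465 were galactose-induced for 36–48 hours, stained 1 hour at 4 °C with 10% biotinylated, detergent-solubilized Sf9 membrane reagent and enriched on streptavidin microbeads. FACS then separated cells into low and high (top ~1%) gates by anti-HA (expression) and streptavidin (reagent binding) fluorescence. Genes were colony-PCR amplified, MiSeq 2 × 250 sequenced and CDR-length filtered. A clone's polyreactivity label is that of its gate of origin.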
In the case of “QVQLVESGGGLVQAGGSLRLSCADSGSTFGYYAMGSYRQAPGKERELVAAITSTGRTKYADSVKGRVTISRDNAKNTVNLQMNSLKPEDTAVYYCAADIWGQGTQVTVSS”, the “polyreactivity (PSR sort gate)” value was “high polyreactivity”.

As to “QVQLVESGGGLVQAGGSLRLSCADSGSTFLVYSMGWYRQAPGKERELVAVIDNGGDTYYADSVKGRFTISRDNAKNTVYLQMNSLKPEDTEVYYCAADLSYLGYWEYDYWGQGSQVTVSS”, the “polyreactivity (PSR sort gate)” value was “low polyreactivity”.

Take “QVQLVESGGGLVQAGGSLRLSCADSGSTFTRYGMGWYRQAPGKERELVAAITTSGSSTYYADSVKGRYTISRDNAKNTVYLQMNSLKPEDTAVYYCAADWSSWGFDYWGQGTQVTVSS”: the “polyreactivity (PSR sort gate)” value is given as “low polyreactivity”.

Consider “QVQLVESGGGLVQAGGSLRLSCADSGSTFWYNAMGWYRQAPGKERELVAAITWSASRTYYADSVKGRFTISRDNAKNTVYLQMNSLKPEDTAVYYCAKASPRYKYFTGDYWGQGTQVTVSS”, for which the “polyreactivity (PSR sort gate)” value is listed as “high polyreactivity”.

With “QVQLVESGGGLVQAGGSLRLSCADSGSTLQVNAMGWYRQAPGKERELVATISFSGGSTYYADSVKGRFTISRDNAKNTVYLQMNSLNPEDTAVYYCNADSFVSWYNQFWYQATYDYWGQGTQVTVSS”, the “polyreactivity (PSR sort gate)” value is listed as “low polyreactivity”.

On to “QVQLVESGGGLVQAGGSLRLSCADSGSTPVYAMGWYIQAPGKERELVAAIRRRASSTYYADSVKGRLTISRDNAKNTVYLQMNSLKPEDTAVYYCAVGRLNGVLLGYWGQGTQVTVSS”, for which the “polyreactivity (PSR sort gate)” value is “high polyreactivity”.

As to “QVQLVESGGGLVQAGGSLRLSCADSVIIFRVYVMGCYRQAPGKERELVDAISTSGGRTSYADSVKGRFTISRDNAKNTVYLQMNSLKPEDTAVYYCAARPLYSYSQWGYGYWGQGTQVTVSS”, the “polyreactivity (PSR sort gate)” value is given as “high polyreactivity”.

For “QVQLVESGGGLVQAGGSLRLSCADTGSTFYNYAMGWYRQAHGKERELVAAISSGGSTNYADSVKGLFTISRDNAKNTVYLKMNSLKPEDTAVYYCARRHRVYTSRIGHDYWGQGTQGTVSS”, the “polyreactivity (PSR sort gate)” value is recorded as “low polyreactivity”.

Consider “QVQLVESGGGLVQAGGSLRLSCAGLRIYLPGYARGWYRQAPGKERELVAVISGSGSGTYYADSVKGRFTISRDNAKNTVYLQMNSLKPEDTAVYYCAADDVGRGSTPYDYWGQGTQVTVSS”, for which the “polyreactivity (PSR sort gate)” value is “high polyreactivity”.

As to “QVQLVESGGGLVQAGGSLRLSCAGSGFIFHLYAMGWYRPAPGKERELVAAIRISDGSTYYADSVKGRFTISRDNAKNTVYLLMNSLKPEDTAVYYCNRVRSSYVYVSRFDYWGQGTQVTVSS”, the “polyreactivity (PSR sort gate)” value is “high polyreactivity”.

“QVQLVESGGGLVQAGGSLRLSCAGSGFTFAYYAMGWYRQAPGKERELVAAITRGGGRTFYADSVKGRFTISRDNAKNTVYLQMNSLKPEDTAVYYCAAVKDTTNSRGYGYWGQGTQVTVSS”: the “polyreactivity (PSR sort gate)” value was “high polyreactivity”.

With “QVQLVESGGGLVQAGGSLRLSCAGSGFTFGKNAMGWYRQAPGKERELVAANSGRGGRTFYADSVKGRFTISRDNAKNTVYLQMNSLKPEDTADYYCAAQRYYDNQYPYEYWGQGTQVTVSS”, the “polyreactivity (PSR sort gate)” value is “high polyreactivity”.

Regarding “QVQLVESGGGLVQAGGSLRLSCAGSGGIIGSNAMGWYRQAPGKERELVAAINTRGGRTYYADSVKWRFTISRDNAKNTVYLQMNILKPEDTAVYYCATVSYSSRRDRYDYWGQGTQVTVSS”, the “polyreactivity (PSR sort gate)” value is given as “high polyreactivity”.

With “QVQLVESGGGLVQAGGSLRLSCAGSGRTFQYYAMGCYRQAPGKEMELVAGITGGGSTYYADSVKGRFTISRDNAKNTVYLQMNSLKPEDTAVYYCAADRSYYGYGYWGQGTQVTVSS”, the “polyreactivity (PSR sort gate)” value was “low polyreactivity”.

For “QVQLVESGGGLVQAGGSLRLSCAGSGRTLVLYDRGWSRQAHGKARELVAAITWSGDSTYYADSVKGRFTISRDNAKNTVYLQMNSLKPEDTQVYYCSATYLNAKRGLRDDYWGQGTQVTVSS”, the “polyreactivity (PSR sort gate)” value was “low polyreactivity”.

For the sequence “QVQLVESGGGLVQAGGSLRLSCAHSGFTFTYYAMGWYRQAPGKEREFVAGISRSGGSTYYADSVKGRFTISRDIAKNTVYLQMNSLKPEDTAVYYCAATAYSPRGKRYDSWGQGTQVTVSS”, the “polyreactivity (PSR sort gate)” value was “high polyreactivity”.

Take “QVQLVESGGGLVQAGGSLRLSCAPAGRTFNGYAMGWYRQAPGKERELVASITLRGGSTYYADSVKGRFTISRDNAKNTVYLQMNSLKPEDTAVYYCNARPHTRRYTFTYGYWGQGTQVTVSS”: the “polyreactivity (PSR sort gate)” value was “high polyreactivity”.

On to “QVQLVESGGGLVQAGGSLRLSCAPSGFIFDYNAMGWYRQAPGKERELVAAISISGGGTYYADSVKGRFTISRDNAKNTVYLQMNSLKPEDTAVYYCATAGRYDAYDYWGQGTQVTVSS”, for which the “polyreactivity (PSR sort gate)” value is “low polyreactivity”.

For “QVQLVESGGGLVQAGGSLRLSCAPSGFIFEGNAMGWYRQAPGKERELVATISRSGGRTNYADSVKGRFTISRDNAKNTVYLQMNSLKPEDTAVYYCAAAYLRRVAYDYWGQGTQVTVSS”, the “polyreactivity (PSR sort gate)” value was “high polyreactivity”.

On to “QVQLVESGGGLVQAGGSLRLSCAPSGFIFNRNTMGWYRQAPGKERELVAAISFRGTSTYYADSVKGRFTISRDNAKNTVYLQMNSLKPEDTAVYYCNRARILVWSKYGYWGQGTQVNVSS”, for which the “polyreactivity (PSR sort gate)” value is recorded as “high polyreactivity”.

Consider “QVQLVESGGGLVQAGGSLRLSCAPSGFIFTLYAMGWYRQAPGKERELVASISSGGSTNYADSVKGRFTISRDNAKNTVYLQMHSLKPEATAVYYCDAYYYSKSDRFSGRYGRYYWGQVTQVTVSS”, for which the “polyreactivity (PSR sort gate)” value is listed as “high polyreactivity”.

Regarding “QVQLVESGGGLVQAGGSLRLSCAPSGFIFWRNAMGWYRQAPGKEREFVAAITSSGGRTYYADSVKGRFTISRDNAKNTVYLQMNSLKPEDTAVYYCAAEIRDYAKSYSFYWGQGTQVTVSS”, the “polyreactivity (PSR sort gate)” value was “high polyreactivity”.

As to “QVQLVESGGGLVQAGGSLRLSCAPSGFTFRGNAMGWYRQAPGKERELVATISRGGNTNYADSVKGRCTISRDNAKNTVYLQMNSLKPEDTAVYYCAAVSFIRSKVAYNYWGQGTQVTVSS”, the “polyreactivity (PSR sort gate)” value is given as “low polyreactivity”.

In the case of “QVQLVESGGGLVQAGGSLRLSCAPSGFTFRRNAMGWYRQAPGKERELVAVITSSARTNYADSVKGRFTISRDNAKKTVYLEMNSLKPEDTAVYYCAARYHYGVWRERHGYWGQGTKVTVSS”, the “polyreactivity (PSR sort gate)” value is given as “high polyreactivity”.

Take “QVQLVESGGGLVQAGGSLRLSCAPSGFTFSYNAMGWYRQAPGKERELVAAISNSGGSTYYADSVKGRFTISRDNAKYTVYLQMNSLKPEDTAVYYCAADVAQVGYQVGVSEIYPGYEYWGQGTQVTVSS”: the “polyreactivity (PSR sort gate)” value is given as “low polyreactivity”.

In the case of “QVQLVESGGGLVQAGGSLRLSCAPSGGTFPFNAMGWYRQAPGKERELVAAISGRSGRTYYADSVKGRFTISRDNAKNTVDLQMNRLKPEDTAVYYCAARRWRPYDYWGQGTQVTVSS”, the “polyreactivity (PSR sort gate)” value is on record as “high polyreactivity”.

For “QVQLVESGGGLVQAGGSLRLSCAPSGIIFLGYMGWYRQAPGKEREFVADITFSVDGTYYADSVKGRFTISRDNAKNTVYLQMNSLKPEDNAVYYCAAVSDLQAGTMEYWGQGTEVTVSS”, the “polyreactivity (PSR sort gate)” value is “high polyreactivity”.

Turning to “QVQLVESGGGLVQAGGSLRLSCAPSGIIFRGNAMGWYRQAPGKEREFVAAISLRGSRTYYADSVKGRFTISRDNAKNTVYLQMNSLKQEDTAVYYCAATRPYRYNYWGQGTQVTVSS”, the “polyreactivity (PSR sort gate)” value is on record as “high polyreactivity”.

With “QVQLVESGGGLVQAGGSLRLSCAPSGIIFSPNAMGLYRQAPGKERELVASISSDSSTNYADSVKGRFSISRDNAKNTVYLQMNSLKPEYTAVYYCAADFVVGQAGDWTFWFDYWGQGTQVTVSS”, the “polyreactivity (PSR sort gate)” value is “low polyreactivity”.

For “QVQLVESGGGLVQAGGSLRLSCAPSGIIFYGNAMGWYRPAPGKERELVAAITRSGVRTYYADSVKGRFTISRDNAKKTGYLQMNSLNPEDSAVSYCAAVKPVSSRHYPYDYWGQGTQVTVSS”, the “polyreactivity (PSR sort gate)” value is “high polyreactivity”.
